Data published in patent US8465945B2, “Method for production and use of mite group 1 proteins” (Merck Patent GmbH, priority 1999, dated 2013).

Key:
[1] = test system: IgE from mite-allergic dog sera; test: ELISA, binding of IgE from dog sera to coated Der f 1 proteins or mite extracts, detected with FcεR1α-biotin
Procedure: Native or recombinant Der f 1 proteins in 100 μl CBC buffer (50 mM sodium carbonate, pH 9.6) were coated onto wells (100 ng per well) of Immulon II microtiter plates (available from Dynex Technologies, Chantilly, Va.) by incubation at 4° C., covered, overnight. Excess fluid was removed and wells were blocked with 200 μl Assay Buffer (4% fetal calf serum (available from Summit Laboratories, Fort Collins, Colo.) in phosphate buffered saline (PBS, recipe in Sambrook, ibid.), plus 0.05% Tween-20 (available from Sigma, St. Louis, Mo.)) for one hour at room temperature. Plates were then washed for 4 cycles on an automatic plate washer (Ultrawash, available from Dynatech Laboratories) using PBS with 0.05% Tween-20. […] Control wells were treated identically except that no serum was added. Plates were then washed as described above. Biotinylated human IgE receptor alpha chain (FcεR1α-biotin) (100 μl of 1.3 ng/ml) prepared as described in U.S. Pat. No. 5,945,294, ibid., was added and incubated for one hour at room temperature. After this incubation, plates were washed as described above. Streptavidin-horseradish peroxidase conjugate (0.5 mg/ml, available from KPL Labs, Gaithersburg, Md.) was added at a 1:5000 dilution in Assay Buffer for one hour at room temperature, after which plates were washed as described above. TMB Peroxidase substrate system, 2 part (available from KPL Labs, #0-76-00), added at 100 μl per well, was used according to the manufacturer's directions. The color reaction was allowed to proceed until good color development was reached (about 10-15 min); then the reaction was stopped with 100 μl per well of 1 M phosphoric acid. Bound IgE was determined by measuring absorbance (Optical Density, or OD) at 450 nm (nanometers) using an ELISA plate reader (such as Spectramax”, Molecular Devices, Sunnyvale, Calif.). Background OD readings in the control wells were subtracted from all numbers. Results are reported in Tables 1, 2 and 3 as OD multiplied by 1000. OD numbers greater than 100 are considered to be positive for a reaction with IgE. P. pastoris-expressed proteins are denoted in the Tables as Pichia expressed proteins.

[2] = test system: IgE from mite-allergic or normal human sera; test: ELISA, binding of IgE from human sera to coated Der f 1 proteins or mite extracts, detected with FcεR1α-biotin
[3] = test system: anti-Der f 1 MAb 6A8 (capture) and anti-Der f 1 MAb 4C1 (detection); test: Monoclonal Capture ELISA; format: binding
Procedure: Assays were carried out as follows. A microtiter plate as described in Example 5 was coated overnight at 4° C. with 100 ng/well of anti-Der f 1 protein monoclonal antibody 6A8, denoted herein as anti-Der f 1 MAb 6A8, provided by Dr. Martin Chapman. The plate was washed in the manner described above. The following proteins were then added to wells, having been diluted in Assay Buffer in a 2-fold dilution series, from 0.75 to 50 ng/well: Heska native Derf1, P. pastoris-expressed PDerf1303b, and E. coli-expressed PDerf1303c. After incubation for 1 hour at room temperature, plates were washed as described in Example 5. Then 100 μl per well of a 1:1000 dilution in Assay Buffer of biotinylated anti-Der f 1 monoclonal antibody 4C1, also denoted anti-Der f 1 MAb 4C1, provided by Dr. Martin Chapman, was added for 1 hour at room temperature. Plates were washed, streptavidin-HRP conjugate was added, and plates were developed as described in Example 5.

B1: PDerf1303c: Recombinant pro-form of Der f 1 (SEQ ID NO:35) expressed in E. coli from nDerf1909c, refolded from inclusion bodies (protein, listed as Dermatophagoides farinae)
chain: RPASIKTFEEFKKAFNKNYATVEEEEVARKNFLESLKYVEANKGAINHLSDLSLDEFKNRYLMSAEAFEQLKTQFDLNAETSACRINSVNVPSELDLRSLRTVTPIRMQGGCGSCWAFSGVAATESAYLAYRNTSLDLSEQELVDCASQHGCHGDTIPRGIEYIQQNGVVEERSYPYVAREQRCRRPNSQHYGISNYCQIYPPDVKQIREALTQTHTAIAVIIGIKDLRAFQHYDGRTIIQHDNGYQPNYHAVNIVGYGSTQGVDYWIVRNSWDTTWGDSGYGYFQAGNNLMMIEQYPYVVIM
OD, bound IgE ([1]; Assay Number 1, serum dog pool): 615 OD multiplied by 1000 | OD, bound IgE ([1]; Assay Number 1, serum dog-1): 0 OD multiplied by 1000 | OD, bound IgE ([1]; Assay Number 1, serum dog-2): 258 OD multiplied by 1000 | OD, bound IgE ([1]; Assay Number 1, serum dog-3): 45 OD multiplied by 1000 | OD, bound IgE ([1]; Assay Number 2, dog sera pool A 146): 489 OD multiplied by 1000 | OD, bound IgE ([1]; Assay Number 2, dog sera pool KS338): 68 OD multiplied by 1000 | dog serum samples bound, of those that bound to native Der f 1 proteins ([1]; Table 1): 1 of 2 | OD, bound IgE ([2]; Assay Number 1, serum human 1916): 18 OD multiplied by 1000 | OD, bound IgE ([2]; Assay Number 1, serum human3848): 2291 OD multiplied by 1000 | OD, bound IgE ([2]; Assay Number 1, serum human 3958): 147 OD multiplied by 1000 | OD, bound IgE ([2]; Assay Number 1, serum human 3960): 1442 OD multiplied by 1000 | OD, bound IgE ([2]; Assay Number 1, serum human 3961): 67 OD multiplied by 1000 | OD, bound IgE ([2]; Assay Number 1, serum human 3987): 1416 OD multiplied by 1000 | OD, bound IgE ([2]; Assay Number 1, serum human 4289): 29 OD multiplied by 1000 | OD, bound IgE ([2]; Assay Number 1, serum human 4467): 236 OD multiplied by 1000 | OD, bound IgE ([2]; Assay Number 1, serum human 5207): 1902 OD multiplied by 1000 | OD, bound IgE ([2]; Assay Number 1, serum human pool): 883 OD multiplied by 1000 | OD, bound IgE ([2]; Assay Number 2, serum Heska human B): 0 OD multiplied by 1000 | OD, bound IgE ([2]; Assay Number 2, serum Heska human C): 4 OD multiplied by 1000 | OD, bound IgE ([2]; Assay Number 2, serum Heska human D): 0 OD multiplied by 1000 | OD, bound IgE ([2]; Assay Number 2, serum Heska human E): 10 OD multiplied by 1000 | OD, bound IgE ([2]; Assay Number 2, serum Heska human F): 0 OD multiplied by 1000 | OD, bound IgE ([2]; Assay Number 2, serum Heska human G): 0 OD multiplied by 1000 | OD, bound IgE ([2]; Assay Number 2, serum Heska human H): 0 OD multiplied by 1000 | OD, bound IgE ([2]; Assay Number 2, serum Heska human I): 1 OD multiplied by 1000 | OD, bound IgE ([2]; Assay Number 2, serum Heska human J): 0 OD multiplied by 1000 | OD, bound IgE ([2]; Assay Number 2, serum Heska human K): 0 OD multiplied by 1000 | OD, bound IgE ([2]; Assay Number 2, serum Heska human L): 0 OD multiplied by 1000 | OD, bound IgE ([2]; Assay Number 2, serum Heska human M): 0 OD multiplied by 1000 | OD, bound IgE ([2]; Assay Number 2, serum Heska human N): 24 OD multiplied by 1000 | OD, bound IgE ([2]; Assay Number 2, serum Heska human O): 2 OD multiplied by 1000 | OD, bound IgE ([2]; Assay Number 2, serum Heska human P): 0 OD multiplied by 1000 | OD, bound IgE ([2]; Assay Number 2, serum Heska human Q): 0 OD multiplied by 1000 | OD, bound IgE ([2]; Assay Number 2, serum Heska human R): 0 OD multiplied by 1000 | OD, bound IgE ([2]; Assay Number 2, serum human 1916): 21 OD multiplied by 1000 | OD, bound IgE ([2]; Assay Number 2, serum human 3848): 2378 OD multiplied by 1000 | OD, bound IgE ([2]; Assay Number 2, serum human 3958): 247 OD multiplied by 1000 | OD, bound IgE ([2]; Assay Number 2, serum human 3960): 944 OD multiplied by 1000 | OD, bound IgE ([2]; Assay Number 2, serum human 3961): 46 OD multiplied by 1000 | OD, bound IgE ([2]; Assay Number 2, serum human 3987): 1477 OD multiplied by 1000 | OD, bound IgE ([2]; Assay Number 2, serum human 4289): 47 OD multiplied by 1000 | OD, bound IgE ([2]; Assay Number 2, serum human 4467): 277 OD multiplied by 1000 | OD, bound IgE ([2]; Assay Number 2, serum human 5207): 2122 OD multiplied by 1000 | OD, bound IgE ([2]; Assay Number 2, serum human pool): 1161 OD multiplied by 1000 | reactivity: share of human serum samples reactive to native Der f 1 proteins that are also reactive to the recombinant protein ([2]; Table 1, 9 human samples (8 sera and pool), OD numbers greater than 100 positive): 78% | reactivity: share of human serum samples reactive to native Der f 1 proteins that are also reactive to the recombinant protein ([2]; Table 2, 10 human serum samples): 70% | OD, protein captured by MAb 6A8 and detected by MAb 4C1 ([3]; 0.75 ng protein per well): 136 OD | OD, protein captured by MAb 6A8 and detected by MAb 4C1 ([3]; 1.5 ng protein per well): 268 OD | OD, protein captured by MAb 6A8 and detected by MAb 4C1 ([3]; 2.5 ng protein per well): 1372 OD | OD, protein captured by MAb 6A8 and detected by MAb 4C1 ([3]; 3.1 ng protein per well): 503 OD | OD, protein captured by MAb 6A8 and detected by MAb 4C1 ([3]; 6.25 ng protein per well): 890 OD | OD, protein captured by MAb 6A8 and detected by MAb 4C1 ([3]; 25 ng protein per well): 1770 OD | OD, protein captured by MAb 6A8 and detected by MAb 4C1 ([3]; 50 ng protein per well): 1983 OD

B2: PDerf1223b: Recombinant mature form of Der f 1 (SEQ ID NO:32) expressed by P. pastoris from nDerf1669b (protein, listed as Dermatophagoides farinae)
chain: TSACRINSVNVPSELDLRSLRTVTPIRMQGGCGSCWAFSGVAATESAYLAYRNTSLDLSEQELVDCASQHGCHGDTIPRGIEYIQQNGVVEERSYPYVAREQRCRRPNSQHYGISNYCQIYPPDVKQIREALTQTHTAIAVIIGIKDLRAFQHYDGRTIIQHDNGYQPNYHAVNIVGYGSTQGVDYWIVRNSWDTTWGDSGYGYFQAGNNLMMIEQYPYVVIM
OD, bound IgE ([2]; Table 3, sera 429, PDerf1303b preparation number A166-26, PDerf1223b preparation 1000-7): 63 OD multiplied by 1000 | OD, bound IgE ([2]; Table 3, sera 1916, PDerf1303b preparation number A166-26, PDerf1223b preparation 1000-7): 0 OD multiplied by 1000 | OD, bound IgE ([2]; Table 3, sera 3848, PDerf1303b preparation number A166-26, PDerf1223b preparation 1000-7): 1253 OD multiplied by 1000 | OD, bound IgE ([2]; Table 3, sera 3958, PDerf1303b preparation number A166-26, PDerf1223b preparation 1000-7): 1224 OD multiplied by 1000 | OD, bound IgE ([2]; Table 3, sera 3960, PDerf1303b preparation number A166-26, PDerf1223b preparation 1000-7): 634 OD multiplied by 1000 | OD, bound IgE ([2]; Table 3, sera 3961, PDerf1303b preparation number A166-26, PDerf1223b preparation 1000-7): 301 OD multiplied by 1000 | OD, bound IgE ([2]; Table 3, sera 3987, PDerf1303b preparation number A166-26, PDerf1223b preparation 1000-7): 1078 OD multiplied by 1000 | OD, bound IgE ([2]; Table 3, sera 4467, PDerf1303b preparation number A166-26, PDerf1223b preparation 1000-7): 432 OD multiplied by 1000 | OD, bound IgE ([2]; Table 3, sera 5207, PDerf1303b preparation number A166-26, PDerf1223b preparation 1000-7): 1096 OD multiplied by 1000 | OD, bound IgE ([2]; Table 3, sera human pool, PDerf1303b preparation number A166-26, PDerf1223b preparation 1000-7): 774 OD multiplied by 1000
